Measurements: patent publication US6399759 (UNIVERSITY OF GEORGIA RESEARCH FOUNDATION, dated 2002)

How the values were obtained:
Experiment in all cases: cell-based or functional assay
Soli C1 = Soli C1 (Solenopsis invicta)
Soli E1 = Soli E1 (Solenopsis invicta)
Soli E2 = molecular target: T1, Soli E2 (Solenopsis invicta)
T1 chain: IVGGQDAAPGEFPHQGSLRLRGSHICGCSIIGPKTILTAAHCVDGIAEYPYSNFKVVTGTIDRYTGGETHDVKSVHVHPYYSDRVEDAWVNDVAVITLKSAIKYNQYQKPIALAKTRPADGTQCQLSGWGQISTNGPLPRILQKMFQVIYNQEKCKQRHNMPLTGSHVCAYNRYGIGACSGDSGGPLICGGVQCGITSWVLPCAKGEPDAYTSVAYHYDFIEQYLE

Soli C2 = Soli C2 (Solenopsis invicta)
Sequence of Soli C2 (Solenopsis invicta) (main, as listed by the source): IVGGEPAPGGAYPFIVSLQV

Sequence of Soli E1 (Solenopsis invicta) (main, as listed by the source): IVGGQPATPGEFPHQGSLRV
Sequence of Soli C1 (Solenopsis invicta) (Q7SIG2 other isoform, or with tags, fused parts or gaps): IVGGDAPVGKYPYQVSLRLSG

B1: Lima Bean Trypsin Inhibitor (other, UniProt P01056 1-83, looked up)
chain: SGHHEHSTDXPSXSSKPCCXHCACTKSIPPQCRCTDLRLDSCHSACKSCICTLSIPAQCVCXXIXDFCYEPCKSSHSDDDNNN
modifications: not fully specified
Question: With B1 as the binder, how does the “IC50” value (Soli C1) read?
Answer: Its value is 18.4 nM.

Question: What about the “IC50” value (Soli E1) of the same binder?
Answer: Its value is > 50 nM.

Question: What about the “IC50” value (Soli E2) of the same binder?
Answer: The value was > 50 nM.

Question: And the “IC50” value (Soli C2)?
Answer: Its value is 1.46 nM.
